Measurements: the supplement of paper PMC10724198
± gives the standard deviation of the averaged measurements.

Experiments:
Saccharomyces cerevisiae [1] = assay: protein stability index of tFT-peptide fusion (C-terminal peptide) (PSI (0-1 scale)); higher = more stable (slower turnover); conditions: genetic background: wild type; temperature: 30 C
Saccharomyces cerevisiae [2] = assay: as above
Procedure: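 MPS profiling in S. cerevisiae of the tFT-X12 degron library: putative degron peptides plus stable controls, 12 aa, fused to the C-terminus of a sfGFP-mCherry timer. Cells are FACS-sorted into 8 mCherry/sfGFP bins and deep-sequenced. PSI runs from 0 (unstable) to 1 (stable). Backgrounds are wild type, das1Δ and doa10Δ at 30 °C, and wild type, das1Δ, cdc34-1 and cdc53-1 at 37 °C; 2-3 technical replicates each.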

[3] = genetic background: cdc34-1, temperature: 37 C
[4] = genetic background: cdc53-1, temperature: 37 C
[5] = genetic background: das1 deletion, temperature: 30 C
[6] = genetic background: das1 deletion, temperature: 37 C
[7] = genetic background: doa10 deletion, temperature: 30 C
[8] = genetic background: wild type, temperature: 30 C
[9] = genetic background: wild type, temperature: 37 C
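Note: PSI is a weighted mean of sequencing reads over stability bins, variants kept only with over 10 reads, mCherry proximal and sfGFP distal, peptide attached via GGGS linker.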

| Sequence | protein stability index (Saccharomyces cerevisiae [1]) | protein stability index (Saccharomyces cerevisiae [2]; [3]) | protein stability index (Saccharomyces cerevisiae [2]; [4]) | protein stability index (Saccharomyces cerevisiae [2]; [5]) | protein stability index (Saccharomyces cerevisiae [2]; [6]) | protein stability index (Saccharomyces cerevisiae [2]; [7]) | protein stability index (Saccharomyces cerevisiae [2]; [8]) | protein stability index (Saccharomyces cerevisiae [2]; [9]) |
| --- | --- | --- | --- | --- | --- | --- | --- | --- |
| LSVSLFPIRYVG | 0.396 ± 0.025 | 0.666 ± 0.027 | 0.76446 ± 1.3e-05 | 0.617 ± 0.019 | 0.7638 ± 0.0037 | 0.196 ± 0.0098 | 0.24 ± 0.02 | 0.453 ± 0.016 |
| LVVIYPLLSSPV | 0.4643 ± 0.00088 | 0.564 ± 0.0066 | 0.567 ± 0.019 | 0.43 ± 0.027 | 0.578 ± 0.0074 | 0.402 ± 0.014 | 0.43 ± 0.022 | 0.562 ± 0.0072 |
| LWFFVGFAVYGG | 0.455 ± 0.0066 | 0.302 ± 0.0084 | 0.438 ± 0.018 | 0.346 ± 0.036 | 0.513 ± 0.019 | 0.306 ± 0.012 | 0.371 ± 0.0059 | 0.497 ± 0.058 |
| LWFRGGYLFFVV | 0.265 ± 0.043 | 0.44378 ± 0.00022 | 0.444 ± 0.013 | 0.439 ± 0.025 | 0.499 ± 0.01 | 0.2 ± 0.013 | 0.185 ± 0.016 | 0.332 ± 0.0057 |
| LWVTRVYCLLVC | 0.0818 ± 0.0069 | 0.0444 ± 0.016 | 0.158 ± 0.03 | 0.168 ± 0.019 | 0.233 ± 0.019 | 0.0555 ± 0.02 | 0.0507 ± 0.015 | 0.0739 ± 0.015 |
| LYIQWVSRWSVQ | 0.504 ± 0.025 | 0.611 ± 0.029 | 0.664 ± 0.083 | 0.547 ± 0.035 | 0.669 ± 0.021 | 0.388 ± 0.011 | 0.415 ± 0.019 | 0.5818 ± 0.003 |
| LYLCLVSPVVVL | 0.296 ± 0.029 | 0.156 ± 0.011 | 0.172 ± 0.0061 | 0.226 ± 0.024 | 0.296 ± 0.0064 | 0.184 ± 0.011 | 0.204 ± 0.032 | 0.2571 ± 0.0014 |
| LYLGCVLFVLFR | 0.234 ± 0.054 | 0.197 ± 0.045 | 0.151 ± 0.024 | 0.216 ± 0.029 | 0.368 ± 0.0098 | 0.273 ± 0.0047 | 0.198 ± 0.024 | 0.312 ± 0.036 |
| LYSVLWFCFPLV | 0.466 ± 0.028 | 0.586 ± 0.039 | 0.5638 ± 0.0037 | 0.446 ± 0.025 | 0.577 ± 0.0076 | 0.442 ± 0.035 | 0.42 ± 0.024 | 0.55 ± 0.01 |
| LYVLNILSFVCV | 0.1688 ± 0.00051 | 0.1572 ± 0.0013 | 0.25 ± 0.0041 | 0.137 ± 0.013 | 0.251 ± 0.023 | 0.115 ± 0.0099 | 0.117 ± 0.017 | 0.207 ± 0.0027 |
| MALAVRVVKCGA | 0.384 ± 0.028 | 0.328 ± 0.016 | 0.376 ± 0.0062 | 0.275 ± 0.031 | 0.4361 ± 0.0027 | 0.221 ± 0.006 | 0.268 ± 0.034 | 0.397 ± 0.0054 |
| MCRMYELYVTSS | 0.467 ± 0.01 | 0.504 ± 0.046 | 0.568 ± 0.079 | 0.382 ± 0.034 | 0.588 ± 0.026 | 0.349 ± 0.025 | 0.374 ± 0.018 | 0.558 ± 0.016 |
| MIILGFILYFFW | 0.422 ± 0.033 | 0.4 ± 0.011 | 0.533 ± 0.03 | 0.332 ± 0.035 | 0.505 ± 0.018 | 0.352 ± 0.04 | 0.347 ± 0.034 | 0.444 ± 0.018 |
| NAPSAIQKNKKC | 0.433 ± 0.081 | 0.696 ± 0.016 | 0.6886 ± 0.0037 | 0.649 ± 0.036 | 0.71782 ± 0.00039 | 0.211 ± 0.016 | 0.281 ± 0.037 | 0.515 ± 0.08 |
| NDSSWEVSLMVG | 0.363 ± 0.076 | 0.693 ± 0.019 | 0.763 ± 0.021 | 0.616 ± 0.024 | 0.748 ± 0.0098 | 0.614 ± 0.041 | 0.62 ± 0.018 | 0.736 ± 0.028 |
| NECLSSKWLRIC | 0.185 ± 0.0041 | 0.399 ± 0.013 | 0.661 ± 0.032 | 0.631 ± 0.029 | 0.726 ± 0.025 | 0.0791 ± 0.032 | 0.111 ± 0.039 | 0.147 ± 0.035 |
| NFKELMEKSKYR | 0.719 ± 0.018 | 0.704 ± 0.02 | 0.752 ± 0.029 | 0.677 ± 0.019 | 0.763 ± 0.028 | 0.677 ± 0.061 | 0.665 ± 0.027 | 0.718 ± 0.012 |
| NLTAIIYTLVVD | 0.31 ± 0.015 | 0.2313 ± 0.0018 | 0.466 ± 0.23 | 0.218 ± 0.032 | 0.444 ± 0.018 | 0.197 ± 0.016 | 0.225 ± 0.028 | 0.3944 ± 0.00021 |
| NQIIRLIVGLLC | 0.291 ± 0.016 | 0.55 ± 0.039 | 0.601 ± 0.017 | 0.486 ± 0.017 | 0.5867 ± 0.0055 | 0.193 ± 0.014 | 0.224 ± 0.011 | 0.355 ± 0.02 |
| PCLLRYLVHPFP | 0.75445 ± 0.00044 | 0.687 ± 0.026 | 0.765 ± 0.021 | 0.648 ± 0.014 | 0.7439 ± 0.0017 | 0.65 ± 0.013 | 0.667 ± 0.0086 | 0.7159 ± 0.0025 |
